B1: Tissue-type plasminogen activator, P00750 (parent)
chain: MDAMKRGLCCVLLLCGAVFVSPSQEIHARFRRGARSYQVICRDEKTQMIYQQHQSWLRPVLRSNRVEYCWCNSGRAQCHSVPVKSCSEPRCFNGGTCQQALYFSDFVCQCPEGFAGKCCEIDTRATCYEDQGISYRGTWSTAESGAECTNWNSSALAQKPYSGRRPDAIRLGLGNHNYCRNPDRDSKPWCYVFKAGKYSSEFCSTPACSEGNSDCYFGNGSAYRGTHSLTESGASCLPWNSMILIGKVYTAQNPSAQALGLGKHNYCRNPDGDAKPWCHVLKNRRLTWEYCDVPSCSTCGLRQYSQPQFRIKGGLFADIASHPWQAAIFAKHRRSPGERFLCGGILISSCWILSAAHCFQERFPPHHLTVILGRTYRVVPGEEEQKFEVEKYIVHKEFDDDTYDNDIALLQLKSDSSRCAQESSVVRTVCLPPADLQLPDWTECELSGYGKHEALSPFYSERLKEAHVRLYPSSRCTSQHLLNRTVTDNMLCAGDTRSGGPQANLHDACQGDSGGPLVCLNDGRMTLVGIISWGLGCGQKDVPGVYTKVTNYLDWIRDNMRP

Variants of: B1
Details: Homo sapiens; pH 8; Thermal; DSC; Tris - Oac/100mM NaOAc 50 mM; transition: 2; structure 1PML; whole UniProt chain shown

Question: What does the source list for Y290F?
Answer: Tm: 81.5 °C; change of melting temperature, mutant - wild type (higher = more stable): 14.8 °C

Reference: FireProtDB (doi:10.1021/bi00178a007)
